In patent US20220402983A1 (Janssen / Centocor, published 2022):
Bridges are numbered along the chain shown (N, C = ends). [ ]: non-standard residue; d: D form. The star is where a group is joined. Trp(7-Me) = Cc1cccc2c(C[C@H](N)C(=O)O)c[nH]c12; Ac6c(4,4-F2) = NC1(C(=O)O)CCC(F)(F)CC1; 2Nal = N[C@@H](Cc1ccc2ccccc2c1)C(=O)O; AEF = NCCOc1ccc(C[C@H](N)C(=O)O)cc1; αMeY = C[C@](N)(Cc1ccc(O)cc1)C(=O)O; αMeF = C[C@](N)(Cc1ccccc1)C(=O)O; αMeE = C[C@](N)(CCC(=O)O)C(=O)O; Cit = NC(=O)NCCC[C@H](N)C(=O)O; αMeL = CC(C)C[C@](C)(N)C(=O)O; Pen = CC(C)(S)[C@H](N)C(=O)O; αMeK = C[C@](N)(CCCCN)C(=O)O; Ac6c = NC1(C(=O)O)CCCCC1; Thp = NC1(C(=O)O)CCOCC1; Abu = CC[C@H](N)C(=O)O; Boc = CC(C)(C)OC(=O)*; Aib = CC(C)(N)C(=O)O; Piv = CC(C)(C)C(=O)*; Tfa = O=C(C(F)(F)F)*

T1: human IL-23R (interleukin-23 receptor) (human, UniProt Q5VWK5 24-629)
T1 sequence (looked up): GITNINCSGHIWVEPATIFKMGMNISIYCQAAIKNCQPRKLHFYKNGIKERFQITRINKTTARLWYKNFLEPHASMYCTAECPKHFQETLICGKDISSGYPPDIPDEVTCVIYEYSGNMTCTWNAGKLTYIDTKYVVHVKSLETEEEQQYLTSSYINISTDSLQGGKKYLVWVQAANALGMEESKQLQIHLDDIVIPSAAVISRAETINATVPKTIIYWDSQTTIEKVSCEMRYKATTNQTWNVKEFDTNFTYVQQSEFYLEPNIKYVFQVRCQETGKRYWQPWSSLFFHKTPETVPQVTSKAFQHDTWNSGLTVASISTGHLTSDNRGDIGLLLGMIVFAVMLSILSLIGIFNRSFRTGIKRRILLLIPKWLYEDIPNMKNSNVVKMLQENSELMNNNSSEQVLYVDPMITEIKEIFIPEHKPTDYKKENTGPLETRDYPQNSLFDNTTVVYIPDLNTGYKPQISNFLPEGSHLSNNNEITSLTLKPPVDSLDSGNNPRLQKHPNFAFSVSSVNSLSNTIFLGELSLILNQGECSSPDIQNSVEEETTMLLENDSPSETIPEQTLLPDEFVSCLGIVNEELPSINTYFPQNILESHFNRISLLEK


The binders below were run against T1, human IL-23R (interleukin-23 receptor) (assay: cell-based or functional assay).

| Binder | PBMC pSTAT3 IC50 (nM) | pStat3 HTRF (nM), IC50, DB cells IL23R pSTAT3 cell assay |
| --- | --- | --- |
| Ac-[Pen]NT[Trp(7-Me)]K(Ac)[Pen][AEF][2Nal][αMeK]K(Ac)N[αMeY]-NH2 (disulfide 1-6; SMILES CC(=O)NCCCC[C@@H]1NC(=O)[C@H](Cc2c[nH]c3c(C)cccc23)NC(=O)[C@H]([C@@H](C)O)NC(=O)[C@H](CC(N)=O)NC(=O)[C@@H](NC(C)=O)C(C)(C)SSC(C)(C)[C@@H](C(=O)N[C@@H](Cc2ccc(OCCN)cc2)C(=O)N[C@@H](Cc2ccc3ccccc3c2)C(=O)N[C@@](C)(CCCCN)C(=O)N[C@@H](CCCCNC(C)=O)C(=O)N[C@@H](CC(N)=O)C(=O)N[C@@](C)(Cc2ccc(O)cc2)C(N)=O)NC1=O) [Compound No. 151] | 5.7 nM |  |
| Ac-[dR][Pen]NT[Trp(7-Me)]K(Ac)[Pen][AEF][2Nal][Ac6c(4,4-F2)]EN[Thp]-NH2 (disulfide 2-7; SMILES CC(=O)NCCCC[C@@H]1NC(=O)[C@H](Cc2c[nH]c3c(C)cccc23)NC(=O)[C@H]([C@@H](C)O)NC(=O)[C@H](CC(N)=O)NC(=O)[C@@H](NC(=O)[C@@H](CCCNC(=N)N)NC(C)=O)C(C)(C)SSC(C)(C)[C@@H](C(=O)N[C@@H](Cc2ccc(OCCN)cc2)C(=O)N[C@@H](Cc2ccc3ccccc3c2)C(=O)NC2(C(=O)N[C@@H](CCC(=O)O)C(=O)N[C@@H](CC(N)=O)C(=O)NC3(C(N)=O)CCOCC3)CCC(F)(F)CC2)NC1=O) [Compound No. 303] | 1.3 nM |  |
| H-[dR][Pen]NT[Trp(7-Me)]K(Ac)[Pen][AEF](Boc)[2Nal][Thp]EN[αMeF]-NH2 (disulfide 2-7; SMILES CC(=O)NCCCC[C@@H]1NC(=O)[C@H](Cc2c[nH]c3c(C)cccc23)NC(=O)[C@H]([C@@H](C)O)NC(=O)[C@H](CC(N)=O)NC(=O)[C@@H](NC(=O)[C@H](N)CCCNC(=N)N)C(C)(C)SSC(C)(C)[C@@H](C(=O)N[C@@H](Cc2ccc(OCCNC(=O)OC(C)(C)C)cc2)C(=O)N[C@@H](Cc2ccc3ccccc3c2)C(=O)NC2(C(=O)N[C@@H](CCC(=O)O)C(=O)N[C@@H](CC(N)=O)C(=O)N[C@@](C)(Cc3ccccc3)C(N)=O)CCOCC2)NC1=O) [Compound No. 305] | 17 nM |  |
| FlagTag-[dR][Pen]NT[Trp(7-Me)]K(Ac)[Pen][AEF][2Nal][Thp]EN[Thp]-NH2 (disulfide 2-7; also: FlagTag sequence not given here) [Compound No. 146] | 8.9 nM |  |
| Ac-[Pen]NT[Trp(7-Me)][Cit][Pen][AEF][2Nal][αMeK]K(Ac)N[Aib]-NH2 (disulfide 1-6; SMILES CC(=O)NCCCC[C@H](NC(=O)[C@](C)(CCCCN)NC(=O)[C@H](Cc1ccc2ccccc2c1)NC(=O)[C@H](Cc1ccc(OCCN)cc1)NC(=O)[C@H]1NC(=O)[C@H](CCCNC(N)=O)NC(=O)[C@H](Cc2c[nH]c3c(C)cccc23)NC(=O)[C@H]([C@@H](C)O)NC(=O)[C@H](CC(N)=O)NC(=O)[C@@H](NC(C)=O)C(C)(C)SSC1(C)C)C(=O)N[C@@H](CC(N)=O)C(=O)NC(C)(C)C(N)=O) [Compound No. 302] | 7 nM |  |
| PentCO-[dR][Pen]NT[Trp(7-Me)]K(Ac)[Pen][AEF][2Nal][Thp]EN[αMeF]-NH2 (disulfide 2-7) [Compound No. 142] | 4.9 nM |  |
| Ac-[Pen]NT[Trp(7-Me)]K(Ac)[Pen][AEF][2Nal][Thp]K(Piv)N[Thp]-NH2 (disulfide 1-6; SMILES CC(=O)NCCCC[C@@H]1NC(=O)[C@H](Cc2c[nH]c3c(C)cccc23)NC(=O)[C@H]([C@@H](C)O)NC(=O)[C@H](CC(N)=O)NC(=O)[C@@H](NC(C)=O)C(C)(C)SSC(C)(C)[C@@H](C(=O)N[C@@H](Cc2ccc(OCCN)cc2)C(=O)N[C@@H](Cc2ccc3ccccc3c2)C(=O)NC2(C(=O)N[C@@H](CCCCNC(=O)C(C)(C)C)C(=O)N[C@@H](CC(N)=O)C(=O)NC3(C(N)=O)CCOCC3)CCOCC2)NC1=O) [Compound No. 141] | 3.7 nM |  |
| Ac-[dR][Pen]NT[Trp(7-Me)]K(Ac)[Pen][AEF][2Nal][Thp][αMeE]N[αMeY]-NH2 (disulfide 2-7; SMILES CC(=O)NCCCC[C@@H]1NC(=O)[C@H](Cc2c[nH]c3c(C)cccc23)NC(=O)[C@H]([C@@H](C)O)NC(=O)[C@H](CC(N)=O)NC(=O)[C@@H](NC(=O)[C@@H](CCCNC(=N)N)NC(C)=O)C(C)(C)SSC(C)(C)[C@@H](C(=O)N[C@@H](Cc2ccc(OCCN)cc2)C(=O)N[C@@H](Cc2ccc3ccccc3c2)C(=O)NC2(C(=O)N[C@@](C)(CCC(=O)O)C(=O)N[C@@H](CC(N)=O)C(=O)N[C@@](C)(Cc3ccc(O)cc3)C(N)=O)CCOCC2)NC1=O) [Compound No. 150] | 4.7 nM |  |
| Ac-[Pen]NT[Trp(7-Me)]K(Ac)[Pen][AEF][2Nal][Thp]K(Piv)N[αMeF]-NH2 (disulfide 1-6; SMILES CC(=O)NCCCC[C@@H]1NC(=O)[C@H](Cc2c[nH]c3c(C)cccc23)NC(=O)[C@H]([C@@H](C)O)NC(=O)[C@H](CC(N)=O)NC(=O)[C@@H](NC(C)=O)C(C)(C)SSC(C)(C)[C@@H](C(=O)N[C@@H](Cc2ccc(OCCN)cc2)C(=O)N[C@@H](Cc2ccc3ccccc3c2)C(=O)NC2(C(=O)N[C@@H](CCCCNC(=O)C(C)(C)C)C(=O)N[C@@H](CC(N)=O)C(=O)N[C@@](C)(Cc3ccccc3)C(N)=O)CCOCC2)NC1=O) [Compound No. 139] | 6.6 nM |  |
| Ac-[Pen]NT[Trp(7-Me)][Cit][Pen][AEF][2Nal][αMeK]K(Ac)N[Aib][dY]-NH2 (disulfide 1-6; SMILES CC(=O)NCCCC[C@H](NC(=O)[C@](C)(CCCCN)NC(=O)[C@H](Cc1ccc2ccccc2c1)NC(=O)[C@H](Cc1ccc(OCCN)cc1)NC(=O)[C@H]1NC(=O)[C@H](CCCNC(N)=O)NC(=O)[C@H](Cc2c[nH]c3c(C)cccc23)NC(=O)[C@H]([C@@H](C)O)NC(=O)[C@H](CC(N)=O)NC(=O)[C@@H](NC(C)=O)C(C)(C)SSC1(C)C)C(=O)N[C@@H](CC(N)=O)C(=O)NC(C)(C)C(=O)N[C@H](Cc1ccc(O)cc1)C(N)=O) [Compound No. 202] |  | 0.637 nM |
| Ac-[dR][Abu]QTWQC[AEF][2Nal][Ac6c][αMeE]NF[Aib][αMeK]-NH2 (thioether 2-7) [Compound No. 301] | 24 nM |  |
| Ac-[Pen]NT[Trp(7-Me)]K(Ac)[Pen][AEF][2Nal][Thp]K(Tfa)N[αMeF]-NH2 (disulfide 1-6; SMILES CC(=O)NCCCC[C@@H]1NC(=O)[C@H](Cc2c[nH]c3c(C)cccc23)NC(=O)[C@H]([C@@H](C)O)NC(=O)[C@H](CC(N)=O)NC(=O)[C@@H](NC(C)=O)C(C)(C)SSC(C)(C)[C@@H](C(=O)N[C@@H](Cc2ccc(OCCN)cc2)C(=O)N[C@@H](Cc2ccc3ccccc3c2)C(=O)NC2(C(=O)N[C@@H](CCCCNC(=O)C(F)(F)F)C(=O)N[C@@H](CC(N)=O)C(=O)N[C@@](C)(Cc3ccccc3)C(N)=O)CCOCC2)NC1=O) [Compound No. 138] | 7.6 nM |  |
| Ac-[dR][Pen]NT[Trp(7-Me)][Cit][Pen][AEF][2Nal][αMeL]EN[αMeF]-NH2 (disulfide 2-7; SMILES CC(=O)N[C@H](CCCNC(=N)N)C(=O)N[C@@H]1C(=O)N[C@@H](CC(N)=O)C(=O)N[C@@H]([C@@H](C)O)C(=O)N[C@@H](Cc2c[nH]c3c(C)cccc23)C(=O)N[C@@H](CCCNC(N)=O)C(=O)N[C@H](C(=O)N[C@@H](Cc2ccc(OCCN)cc2)C(=O)N[C@@H](Cc2ccc3ccccc3c2)C(=O)N[C@@](C)(CC(C)C)C(=O)N[C@@H](CCC(=O)O)C(=O)N[C@@H](CC(N)=O)C(=O)N[C@@](C)(Cc2ccccc2)C(N)=O)C(C)(C)SSC1(C)C) [Compound No. 149] | 2.3 nM |  |
| Ac-[dR][Abu]QT[Trp(7-Me)]K(Ac)C[AEF][2Nal][αMeK]K(Ac)N[αMeF]-NH2 (thioether 2-7) [Compound No. 201] |  | 12.7 nM |
| Ac-[Pen]NT[Trp(7-Me)]K(Ac)[Pen][AEF][2Nal][Thp]K(Tfa)N[Thp]-NH2 (disulfide 1-6; SMILES CC(=O)NCCCC[C@@H]1NC(=O)[C@H](Cc2c[nH]c3c(C)cccc23)NC(=O)[C@H]([C@@H](C)O)NC(=O)[C@H](CC(N)=O)NC(=O)[C@@H](NC(C)=O)C(C)(C)SSC(C)(C)[C@@H](C(=O)N[C@@H](Cc2ccc(OCCN)cc2)C(=O)N[C@@H](Cc2ccc3ccccc3c2)C(=O)NC2(C(=O)N[C@@H](CCCCNC(=O)C(F)(F)F)C(=O)N[C@@H](CC(N)=O)C(=O)NC3(C(N)=O)CCOCC3)CCOCC2)NC1=O) [Compound No. 140] | 2.6 nM |  |
